Data as given in IntAct's records for PubMed 23290633.

B1: Magnesium transporter NIPA4 (Homo sapiens), Q0D2K0 (parent)
chain: MELRVSNTSCENGSLLHLYCSSQEVLCQIVNDLSPEVPSNATFHSWQERIRQNYGFYIGLGLAFLSSFLIGSSVILKKKGLLRLVATGATRAVDGGFGYLKDAMWWAGFLTMAAGEVANFGAYAFAPATVVTPLGALSVLISAILSSYFLRESLNLLGKLGCVICVAGSTVMVIHAPEEEKVTTIMEMASKMKDTGFIVFAVLLLVSCLILIFVIAPRYGQRNILIYIIICSVIGAFSVAAVKGLGITIKNFFQGLPVVRHPLPYILSLILALSLSTQVNFLNRALDIFNTSLVFPIYYVFFTTVVVTSSIILFKEWYSMSAVDIAGTLSGFVTIILGVFMLHAFKDLDISCASLPHMHKNPPPSPAPEPTVIRLEDKNVLVDNIELASTSSPEEKPKVFIIHS

Variants of: B1
Details: with SLC27A4, Q6P1M0
Chain of SLC27A4, Q6P1M0 (Q6P1M0 whole entry, looked up): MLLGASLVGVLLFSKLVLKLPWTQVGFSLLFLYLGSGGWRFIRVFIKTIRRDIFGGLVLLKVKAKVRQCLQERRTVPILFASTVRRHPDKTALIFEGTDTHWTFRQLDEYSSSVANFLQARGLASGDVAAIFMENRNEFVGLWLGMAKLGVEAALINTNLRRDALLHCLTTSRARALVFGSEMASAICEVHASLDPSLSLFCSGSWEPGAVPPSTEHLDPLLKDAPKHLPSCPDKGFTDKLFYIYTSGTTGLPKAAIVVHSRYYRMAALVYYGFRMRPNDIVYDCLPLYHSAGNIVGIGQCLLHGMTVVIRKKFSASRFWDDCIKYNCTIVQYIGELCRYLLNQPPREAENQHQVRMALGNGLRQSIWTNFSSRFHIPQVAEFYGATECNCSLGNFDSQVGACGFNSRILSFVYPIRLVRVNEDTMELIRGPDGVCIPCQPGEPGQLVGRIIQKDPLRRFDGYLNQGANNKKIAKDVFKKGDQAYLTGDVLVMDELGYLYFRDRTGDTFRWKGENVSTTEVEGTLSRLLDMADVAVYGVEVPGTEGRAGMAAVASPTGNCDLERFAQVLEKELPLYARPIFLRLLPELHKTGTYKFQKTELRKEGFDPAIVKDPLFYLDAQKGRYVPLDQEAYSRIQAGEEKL

| Variant | effect of a mutation on the interaction |
| --- | --- |
| A114D | decreasing interaction |
